The target in test [1] is optimized bait-PAR-Grb2, RFP-fused (UniProt P62993). Briefly: subcellular micropatterning (bait-prey copatterning, TIRF microscopy); competition in live HeLa cells: bait-PAR-Grb2-RFP and GFP-fused SOS1 on anti-HA patterns, cyclo(YpVNFΦrpPRR) added to the cells (100 μM over time; dose-response); bait-normalized contrast set between 0 and 100%.
For test [2] the target is unchanged. Briefly: subcellular micropatterning (bait-prey copatterning, TIRF microscopy); competition in live HeLa cells: bait-PAR-Grb2-RFP and Gab1-GFP on anti-HA patterns, cyclo(YpVNFΦrpPRR) added to the cells (100 μM over time; dose-response); bait-normalized contrast set between 0 and 100%.
The target of test [3] is optimized bait-PAR-Grb2, GFP-fused (with inserted flexible linker sequences between fluorophore and Grb2) (UniProt P62993). Briefly: subcellular micropatterning (bait-prey copatterning, TIRF microscopy); live HeLa cells co-expressing bait-PAR-Grb2 and fluorescent prey on anti-HA antibody patterned COP substrate; bait-normalized prey contrast; after EGF stimulation (170 nM, 10 min).

The target is the same in test [4]. Briefly: subcellular micropatterning (bait-prey copatterning, TIRF microscopy); live HeLa cells co-expressing bait-PAR-Grb2 and fluorescent prey on anti-HA antibody patterned COP substrate; bait-normalized prey contrast; basal conditions, before EGF.
Test [5] has the same target. Briefly: TIR-FRAP on bait micropatterns; live HeLa cells co-transfected with bait-PAR-Grb2 and prey on anti-HA patterns; EGF (170 nM) for at least 5 min before FRAP; single patterns bleached for 500 ms; bi-exponential, diffusion-uncoupled two-component fit.
For test [6] the target is unchanged. Briefly: subcellular micropatterning (bait-prey copatterning, TIRF microscopy); live HeLa cells co-expressing bait-PAR-Grb2 and fluorescent prey on anti-HA antibody patterned COP substrate; bait-normalized prey contrast; basal conditions, before EGF. This is another data set of the same source.
The target in test [7] is optimized bait-PAR-Grb2, RFP-fused, P62993. Briefly: TIR-FRAP on bait micropatterns; live HeLa cells co-transfected with bait-PAR-Grb2 and prey on anti-HA patterns; EGF (170 nM) for at least 5 min before FRAP; single patterns bleached for 500 ms; bi-exponential, diffusion-uncoupled two-component fit. Conditions: remark: other sources report otherwise.
The target is the same in test [8]. Briefly: subcellular micropatterning (bait-prey copatterning, TIRF microscopy); live HeLa cells with bait-PAR-Grb2-RFP and GFP-fused Gab1 or SOS1 on anti-HA patterns, treated with 10 μM actinomycin D, copatterning followed over time. The settings on record: remark: other sources report otherwise.
Test [9] shares this target. Briefly: subcellular micropatterning (bait-prey copatterning, TIRF microscopy); live HeLa cells co-expressing bait-PAR-Grb2 and fluorescent prey on anti-HA antibody patterned COP substrate; bait-normalized prey contrast; after EGF stimulation (170 nM, 10 min). The settings on record: remark: other sources report otherwise.
Test [10] has the same target. Briefly: subcellular micropatterning (bait-prey copatterning, TIRF microscopy); live HeLa cells co-expressing bait-PAR-Grb2 and fluorescent prey on anti-HA antibody patterned COP substrate; bait-normalized prey contrast; basal conditions, before EGF. Conditions: remark: other sources report otherwise.

In the case of “cell-permeable cyclic peptide cyclo(YpVNFΦrpPRR)”, in test [1], the EC50 (as a rule, the concentration at which the effect is half-maximal) was found to be 63 µM; the dissociation half-life of SOS1 from Grb2 at 100 μM peptide was 36 s; the maximum prey dissociation at 100 μM peptide (SOS1 from Grb2) fell in the range of 70 to 75%. In test [2], the EC50 worked out at 68 µM, the dissociation half-life of Gab1 from Grb2 at 100 μM peptide was found to be 42 s and the maximum prey dissociation at 100 μM peptide (Gab1 from Grb2) lay in the range of 70 to 75%.
In the case of “SHC-transforming protein 1 (Shc1), RFP-fused (from UniProt P29353 1-583) (natural protein)”, the bait-normalized fluorescence contrast <c prey/bait> in [3] came to 0.45; in test [4] it was 0.21; in [6], 0.14. In test [5], this molecule came in with a half-time of dissociation (FRAP) of 10 s. The same molecule registered a k slow (exchange rate, FRAP) in test [5] of 0.103 s⁻¹.

B1: son of sevenless protein 1 (SOS1), GFP-fused, Q07889 1-1333 (natural protein)
chain: MQAQQLPYEFFSEENAPKWRGLLVPALKKVQGQVHPTLESNDDALQYVEELILQLLNMLCQAQPRSASDVEERVQKSFPHPIDKWAIADAQSAIEKRKRRNPLSLPVEKIHPLLKEVLGYKIDHQVSVYIVAVLEYISADILKLVGNYVRNIRHYEITKQDIKVAMCADKVLMDMFHQDVEDINILSLTDEEPSTSGEQTYYDLVKAFMAEIRQYIRELNLIIKVFREPFVSNSKLFSANDVENIFSRIVDIHELSVKLLGHIEDTVEMTDEGSPHPLVGSCFEDLAEELAFDPYESYARDILRPGFHDRFLSQLSKPGAALYLQSIGEGFKEAVQYVLPRLLLAPVYHCLHYFELLKQLEEKSEDQEDKECLKQAITALLNVQSGMEKICSKSLAKRRLSESACRFYSQQMKGKQLAIKKMNEIQKNIDGWEGKDIGQCCNEFIMEGTLTRVGAKHERHIFLFDGLMICCKSNHGQPRLPGASNAEYRLKEKFFMRKVQINDKDDTNEYKHAFEIILKDENSVIFSAKSAEEKNNWMAALISLQYRSTLERMLDVTMLQEEKEEQMRLPSADVYRFAEPDSEENIIFEENMQPKAGIPIIKAGTVIKLIERLTYHMYADPNFVRTFLTTYRSFCKPQELLSLIIERFEIPEPEPTEADRIAIENGDQPLSAELKRFRKEYIQPVQLRVLNVCRHWVEHHFYDFERDAYLLQRMEEFIGTVRGKAMKKWVESITKIIQRKKIARDNGPGHNITFQSSPPTVEWHISRPGHIETFDLLTLHPIEIARQLTLLESDLYRAVQPSELVGSVWTKEDKEINSPNLLKMIRHTTNLTLWFEKCIVETENLEERVAVVSRIIEILQVFQELNNFNGVLEVVSAMNSSPVYRLDHTFEQIPSRQKKILEEAHELSEDHYKKYLAKLRSINPPCVPFFGIYLTNILKTEEGNPEVLKRHGKELINFSKRRKVAEITGEIQQYQNQPYCLRVESDIKRFFENLNPMGNSMEKEFTDYLFNKSLEIEPRNPKPLPRFPKKYSYPLKSPGVRPSNPRPGTMRHPTPLQQEPRKISYSRIPESETESTASAPNSPRTPLTPPPASGASSTTDVCSVFDSDHSSPFHSSNDTVFIQVTLPHGPRSASVSSISLTKGTDEVPVPPPVPPRRRPESAPAESSPSKIMSKHLDSPPAIPPRQPTSKAYSPRYSISDRTSISDPPESPPLLPPREPVRTPDVFSSSPLHLQPPPLGKKSDHGNAFFPNSPSPFTPPPPQTPSPHGTRRHLPSPPLTQEVDLHSIAGPPVPPRQSTSQHIPKLPPKTYKREHTHPSMHRDGPPLLENAHSS
In [7], B1 displayed a half-time of dissociation (FRAP) of 13 s and a k slow (exchange rate, FRAP) of 0.074 s⁻¹. In test [8], this molecule yielded a dissociation half-life with 10 μM actinomycin D of 84 s and a reduction of copatterning with 10 μM actinomycin D of 25%. In test [9], this molecule showed a bait-normalized fluorescence contrast <c prey/bait> of 0.56. This molecule also came in with a bait-normalized fluorescence contrast <c prey/bait> in test [10] of 0.55.
